From US20240392002A1 (EXELIXIS, published 2024)
Numbering of substitutions follows the chain as printed. Names and notes keep the numbering of the source.

B1: I2C-12 IgG1 (antibody, V domains shown)
VH: EVQLVESGGGLVQPGGSLRLSCAASGFTFSSYFIHWVRQAPGKGLEWVAAIHPAFSFTYYADSVKGRFTISADTSKNTAYLQMNSLRAEDTAVYYCARPRLSSAVVLDYWGQGTLVTVSS
VL: DIQMTQSPSSLSASVGDRVTITCRASQSVSSAVAWYQQKPGKAPKLLIYSASSLYSGVPSRFSGSRSGTDFTLTISSLQPEDFATYYCQQGYYFPGTFGQGTKVEIK
notes: human IgG1
B2: I2A-19 IgG1 (antibody, V domains shown)
VH: EVQLVESGGGLVQPGGSLRLSCAASGFTFSSYFIHWVRQAPGKGLEWVAWIYPSGSYTYYADSVKGRFTISADTSKNTAYLQMNSLRAEDTAVYYCAREMDRVGYSGMDYWGQGTLVTVSS
VL: B1 VL with G91Y, Y92R, Y93T, F94P, P95L
notes: human IgG1
B3: I2C-9 IgG1 (antibody, V domains shown)
VH: EVQLVESGGGLVQPGGSLRLSCAASGFTFTDYDIHWVRQAPGKGLEWVARIWPHGSYTFYADSVKGRFTISADTSKNTAYLQMNSLRAEDTAVYYCARSLTHSYGFDYWGQGTLVTVSS
VL: B1 VL with G91Y, Y93T, F94W, P95L, G96I
notes: human IgG1
B4: I2C-8 IgG1 (antibody, V domains shown)
VH: EVQLVESGGGLVQPGGSLRLSCAASGFTFSGYFIHWVRQAPGKGLEWVAAIFPYRGGTSYADSVKGRFTISADTSKNTAYLQMNSLRAEDTAVYYCARGGVSPGGFDYWGQGTLVTVSS
VL: B1 VL with G91Y, Y93L, F94Y
notes: human IgG1; same CDRs as I2A-16; also called 12C-8
B5: I2A-20 IgG1 (antibody, V domains shown)
VH: EVQLVESGGGLVQPGGSLRLSCAASGFTFSDYGIHWVRQAPGKGLEWVAEIDSWLGYTYYADSVKGRFTISADTSKNTAYLQMNSLRAEDTAVYYCARSPYHYLYYGLDYWGQGTLVTVSS
VL: B1 VL with G91L, Y92S, Y93S, F94S, P95L
notes: human IgG1
B6: I2A-4 IgG1 (antibody, V domains shown)
VH: EVQLVESGGGLVQPGGSLRLSCAASGFTFYSYDIHWVRQAPGKGLEWVAYISPYWGITTYADSVKGRFTISADTSKNTAYLQMNSLRAEDTAVYYCARYIGSSYWDALDYWGQGTLVTVSS
VL: B1 VL with G91S, Y92D, Y93S, F94S, P95L, G96V
notes: human IgG1
B7: I2A-6 IgG1 (antibody, V domains shown)
VH: EVQLVESGGGLVQPGGSLRLSCAASGFTFSLYAIHWVRQAPGKGLEWVAEIDSWLGYTYYADSVKGRFTISADTSKNTAYLQMNSLRAEDTAVYYCARRPVTEVYYSALDYWGQGTLVTVSS
VL: B1 VL with G91Y, Y92D, Y93R, F94S, P95L, G96H
notes: human IgG1
B8: I2C-10 IgG1 (antibody, V domains shown)
VH: EVQLVESGGGLVQPGGSLRLSCAASGFTFSSYFIHWVRQAPGKGLEWVATIHSYFDGTSYADSVKGRFTISADTSKNTAYLQMNSLRAEDTAVYYCARTRPTGGAFDYWGQGTLVTVSS
VL: B1 VL with G91A, Y93W, F94S, G96A
notes: human IgG1
B9: I2A-11 IgG1 (antibody, V domains shown)
VH: EVQLVESGGGLVQPGGSLRLSCAASGFTFSSYVIHWVRQAPGKGLEWVAAIYPYTSSTQYADSVKGRFTISADTSKNTAYLQMNSLRAEDTAVYYCARSYGTGGFDYWGQGTLVTVSS
VL: B1 VL with G91W, Y93S, F94Y, G96L
notes: human IgG1
B10: I2A-3 IgG1 (antibody, V domains shown)
VH: EVQLVESGGGLVQPGGSLRLSCAASGFTFTSYEIHWVRQAPGKGLEWVAHIDPYGGYTQYADSVKGRFTISADTSKNTAYLQMNSLRAEDTAVYYCARRGVAVFDYWGQGTLVTVSS
VL: B1 VL with G91W, Y92A, F94A, G96V
notes: human IgG1
B11: I2A-16 IgG1 (antibody, V domains shown)
VH: B4 VH
VL: B1 VL with G91Y, Y93L, F94Y
notes: human IgG1
B12: I2C-24 IgG1 (antibody, V domains shown)
VH: EVQLVESGGGLVQPGGSLRLSCAASGFTFSRYYIHWVRQAPGKGLEWVADIDSYGGFTYYADSVKGRFTISADTSKNTAYLQMNSLRAEDTAVYYCARAHRFLQGGYVLDYWGQGTLVTVSS
VL: B1 VL with G91Y, Y92S, Y93W, F94G, P95L, G96W
notes: human IgG1
B13: I2A-14 IgG1 (antibody, V domains shown)
VH: EVQLVESGGGLVQPGGSLRLSCAASGFTFDSYVIHWVRQAPGKGLEWVAYIFSFGGYTYYADSVKGRFTISADTSKNTAYLQMNSLRAEDTAVYYCARSPYGTFALDYWGQGTLVTVSS
VL: B1 VL with G91Y, F94T
notes: human IgG1
B14: I2A-1 IgG1 (antibody, V domains shown)
VH: EVQLVESGGGLVQPGGSLRLSCAASGFTFSSYFIHWVRQAPGKGLEWVAAIYPEGGYTYYADSVKGRFTISADTSKNTAYLQMNSLRAEDTAVYYCARDYKYVGALDYWGQGTLVTVSS
VL: B1 VL with G91Y
notes: human IgG1
B15: I2C-4 IgG1 (antibody, V domains shown)
VH: EVQLVESGGGLVQPGGSLRLSCAASGFTFWSYFIHWVRQAPGKGLEWVAYIHPSSSYTDYADSVKGRFTISADTSKNTAYLQMNSLRAEDTAVYYCARTSRDGAMDYWGQGTLVTVSS
VL: B1 VL with G91W, Y93S, F94P, G96E
notes: human IgG1
B16: I2C-23 IgG1 (antibody, V domains shown)
VH: EVQLVESGGGLVQPGGSLRLSCAASGFTFSSYEIHWVRQAPGKGLEWVASIYPFSGDTYYADSVKGRFTISADTSKNTAYLQMNSLRAEDTAVYYCARPGRAIYYAVMDYWGQGTLVTVSS
VL: B1 VL with G91A, Y92G, Y93S, F94H, P95L, G96F
notes: human IgG1
B17: I2A-22 IgG1 (antibody, V domains shown)
VH: EVQLVESGGGLVQPGGSLRLSCAASGFTFSSYFIHWVRQAPGKGLEWVAAIYPSGWYTSYADSVKGRFTISADTSKNTAYLQMNSLRAEDTAVYYCARVQAGVFDYWGQGTLVTVSS
VL: B1 VL with G91Y, F94Y
notes: human IgG1
B18: I2C-17 IgG1 (antibody, V domains shown)
VH: EVQLVESGGGLVQPGGSLRLSCAASGFTFSDYFIHWVRQAPGKGLEWVAYIYPASGGTCYADSVKGRFTISADTSKNTAYLQMNSLRAEDTAVYYCARGYIPHMAALDYWGQGTLVTVSS
VL: B1 VL with G91Y, Y93W, F94W
notes: human IgG1
B19: I2C-11 IgG1 (antibody, V domains shown)
VH: B14 VH with S30G, Y52F, E54A, D99Y, Y100G, K101S, Y102M, V103G, L106F
VL: B1 VL with G91Y, Y93W
notes: human IgG1
B20: I2C-16 IgG1 (antibody, V domains shown)
VH: EVQLVESGGGLVQPGGSLRLSCAASGFTFSSYWIHWVRQAPGKGLEWVAAIHPSGSYTYYADSVKGRFTISADTSKNTAYLQMNSLRAEDTAVYYCARVGLLVTSVMDYWGQGTLVTVSS
VL: B1 VL with G91Y
notes: human IgG1
B21: I2C-2 IgG1 (antibody, V domains shown)
VH: EVQLVESGGGLVQPGGSLRLSCAASGFTFSDYFIHWVRQAPGKGLEWVAGIYPYSGYTKYADSVKGRFTISADTSKNTAYLQMNSLRAEDTAVYYCARDHSPVLDYWGQGTLVTVSS
VL: B1 VL with G91W, F94W
notes: human IgG1
B22: I2C-1 IgG1 (antibody, V domains shown)
VH: EVQLVESGGGLVQPGGSLRLSCAASGFTFTSYGIHWVRQAPGKGLEWVAAIYPHSGFTSYADSVKGRFTISADTSKNTAYLQMNSLRAEDTAVYYCARTSYRGFDYWGQGTLVTVSS
VL: B1 VL with G91Y, Y93W, F94Y
notes: human IgG1

What follows are binders tested against T1, extracellular domain of human ROR2 (human, UniProt Q01974 34-403) (assay: BLI, IgG1 on biosensor, soluble ROR ectodomain).
T1 construct: bought protein; biotinylated in the bivalent assay format; also called Acro Cat. No. RO2-H52E5
T1 sequence (Q01974 34-403 limits assumed): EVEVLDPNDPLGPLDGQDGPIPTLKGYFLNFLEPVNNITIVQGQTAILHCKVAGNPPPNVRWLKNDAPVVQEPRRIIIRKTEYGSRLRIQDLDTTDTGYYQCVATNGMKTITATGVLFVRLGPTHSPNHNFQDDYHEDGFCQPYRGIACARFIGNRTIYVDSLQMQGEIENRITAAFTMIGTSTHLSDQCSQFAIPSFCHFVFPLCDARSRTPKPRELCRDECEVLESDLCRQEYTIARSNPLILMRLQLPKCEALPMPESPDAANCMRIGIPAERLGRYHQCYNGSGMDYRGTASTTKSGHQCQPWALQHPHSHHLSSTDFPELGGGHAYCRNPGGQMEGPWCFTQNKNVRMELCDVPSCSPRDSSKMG
Source text: (§1) To measure binding affinity in ROR binder discovery campaigns, the VL and VH domains identified in the phage screen described above were formatted into a bivalent monospecific native human full-length IgG1 architecture and immobilized to a biosensor on an Octet (Pall ForteBio) biolayer interferometer. Soluble ROR antigens, including the extracellular domains of ROR1 (Acro Cat. No. RO1-H522γ) and ROR2 (Acro Cat. No. R02-H52E5), as well as the individual ROR1 Frizzled (Acro Cat. No. RO1-H5222), Ig-like (Acro Cat. No. RO1-H5221), and Kringle (Acro Cat. No. RO1-H5223) domains, were then added to the system and binding measured.
(§2) ROR binding candidates, formatted in the bivalent monospecific native human full-length IgG1 architecture, were further characterized for binding to ROR1 and/or ROR2. […] ROR binding candidates were also characterized for their binding to specific ROR1 domains.
B1: binds. B2: binds. B3: binds. B4: binds. B5: no binding. B6: no binding. B7: no binding. B8: binds. B9: binds. B10: no binding. B11: binds. B12: binds. B13: binds. B14: binds. B15: binds. B16: binds. B17: binds. B18: binds. B19: binds. B20: binds. B21: binds. B22: binds.

The binders below were run against T2, extracellular domain of human ROR1 (human, UniProt Q01973 30-406) (assay: BLI, IgG1 on biosensor, soluble ROR ectodomain).
T2 construct: bought protein; biotinylated in the bivalent assay format; also called Acro Cat. No. RO1-H522y
T2 sequence (Q01973 30-406 limits assumed): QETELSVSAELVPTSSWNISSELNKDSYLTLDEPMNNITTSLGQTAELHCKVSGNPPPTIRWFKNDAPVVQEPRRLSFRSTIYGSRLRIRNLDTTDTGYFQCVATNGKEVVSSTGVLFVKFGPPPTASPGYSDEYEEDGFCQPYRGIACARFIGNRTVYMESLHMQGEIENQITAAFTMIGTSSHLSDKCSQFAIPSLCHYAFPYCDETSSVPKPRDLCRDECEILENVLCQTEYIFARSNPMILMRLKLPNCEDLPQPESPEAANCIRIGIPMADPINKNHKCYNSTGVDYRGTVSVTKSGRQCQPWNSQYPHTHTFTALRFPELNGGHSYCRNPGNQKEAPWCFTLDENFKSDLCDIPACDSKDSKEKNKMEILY
Source text: as §1, §2
B1: binds. B2: binds. B3: binds. B4: binds. B5: binds. B6: binds. B7: binds. B8: binds. B9: binds. B10: binds. B11: binds. B12: binds. B13: binds. B14: binds. B15: binds. B16: binds. B17: binds. B18: binds. B19: binds. B20: binds. B21: binds. B22: binds.

The binders below were run against T3, ROR1 Frizzled domain (human, UniProt Q01973 165-299) (assay: BLI, IgG1 on biosensor, soluble ROR1 domain).
T3 construct: also called FZ domain; Acro Cat. No. RO1-H5222
T3 sequence (Q01973 165-299): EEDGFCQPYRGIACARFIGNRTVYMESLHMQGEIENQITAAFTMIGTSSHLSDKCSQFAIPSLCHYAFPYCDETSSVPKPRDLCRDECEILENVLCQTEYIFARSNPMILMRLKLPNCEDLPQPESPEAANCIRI
Source text: as §1, §2
B2: binds. B9: binds. B16: binds.

These binders were tested against T4, ROR1 Ig-like domain (human, UniProt Q01973 42-147) (assay: BLI, IgG1 on biosensor, soluble ROR1 domain).
T4 construct: also called Acro Cat. No. RO1-H5221
T4 sequence (Q01973 42-147): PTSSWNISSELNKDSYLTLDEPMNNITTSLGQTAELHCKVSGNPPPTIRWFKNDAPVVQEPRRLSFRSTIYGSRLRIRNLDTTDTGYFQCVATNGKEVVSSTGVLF
Source text: as §1, §2
B1: binds. B3: binds. B4: binds. B5: binds. B6: binds. B7: binds. B8: binds. B10: binds. B11: binds. B12: binds. B13: binds. B14: binds. B15: binds. B17: binds. B18: binds. B19: binds. B20: binds. B21: binds. B22: binds.
